B1: proteinase 3 (protein, listed as Homo sapiens)
chain: MAHRPPSPALASVLLALLLSGAARAAEIVGGHEAQPHSRPYMASLQMRGNPGSHFCGGTLIHPSFVLTAAHCLRDIPQRLVNVVLGAHNVRTQEPTQQHFSVAQVFLNNYDAENKLNDVLLIQLSSPANLSASVATVQLPQQDQPVPHGTQCLAMGWGRVGAHDPPAQVLQELNVTVVTFFCRPHNICTFVPRRKAGICFGDSGGPLICDGIIQGIDSFVIWGCATRLFPDFFTRVALYVDWIRSTLRRVEAKGRP
B2: ANXA6: purified human ANXA6 (R&D Systems) (protein, UniProt P08133 2-673, looked up)
Annexin A6: AKPAQGAKYRGSIHDFPGFDPNQDAEALYTAMKGFGSDKEAILDIITSRSNRQRQEVCQSYKSLYGKDLIADLKYELTGKFERLIVGLMRPPAYCDAKEIKDAISGIGTDEKCLIEILASRTNEQMHQLVAAYKDAYERDLEADIIGDTSGHFQKMLVVLLQGTREEDDVVSEDLVQQDVQDLYEAGELKWGTDEAQFIYILGNRSKQHLRLVFDEYLKTTGKPIEASIRGELSGDFEKLMLAVVKCIRSTPEYFAERLFKAMKGLGTRDNTLIRIMVSRSELDMLDIREIFRTKYEKSLYSMIKNDTSGEYKKTLLKLSGGDDDAAGQFFPEAAQVAYQMWELSAVARVELKGTVRPANDFNPDADAKALRKAMKGLGTDEDTIIDIITHRSNVQRQQIRQTFKSHFGRDLMTDLKSEISGDLARLILGLMMPPAHYDAKQLKKAMEGAGTDEKALIEILATRTNAEIRAINEAYKEDYHKSLEDALSSDTSGHFRRILISLATGHREEGGENLDQAREDAQVAAEILEIADTPSGDKTSLETRFMTILCTRSYPHLRRVFQEFIKMTNYDVEHTIKKEMSGDVRDAFVAIVQSVKNKPLFFADKLYKSMKGAGTDEKTLTRIMVSRSEIDLLNIRREFIEKYDKSLHQAIEGDTSGDFLKALLALCGGED
B3: CASP3: purified human CASP3 (Abcam) (protein)
chain: MENTENSVDSKSIKNLEPKIIHGSESMDSGISLDNSYKMDYPEMGLCIIINNKNFHKSTGMTSRSGTDVDAANLRETFRNLKYEVRNKNDLTREEIVELMRDVSKEDHSKRSSFVCVLLSHGEEGIIFGTNGPVDLKKITNFFRGDRCRSLTGKPKLFIIQACRGTELDCGIETDSGVDDDMACHKIPVEADFLYAYSTAPGYYSWRNSKDGSWFIQSLCAMLKQYADKLEFMHILTRVNRKVATEFESFSFDATFHAKKQIPCIVSMLTKELYFYH
B4: murine neutrophil elastase (protein, listed as Mus musculus)
chain: MALGRLSSRTLAAMLLALFLGGPALASEIVGGRPARPHAWPFMASLQRRGGHFCGATLIARNFVMSAAHCVNGLNFRSVQVVLGAHDLRRQERTRQTFSVQRIFENGFDPSQLLNDIVIIQLNGSATINANVQVAQLPAQGQGVGDRTPCLAMGWGRLGTNRPSPSVLQELNVTVVTNMCRRRVNVCTLVPRRQAGICFGDSGGPLVCNNLVQGIDSFIRGGCGSGLYPDAFAPVAEFADWINSIIRSHNDHLLTHPKDREGRTN

Experiments:
[1] = target: T1, CD95 (Homo sapiens, UniProt P25445); assay: Recombinant CD95 degradation, SDS-PAGE and coomassie blue; format: biochemical; design: Recombinant proteins (1 μg) corresponding to full length CD95 (FL-CD95); conditions: purified CD95
T1 sequence (P25445 26-335): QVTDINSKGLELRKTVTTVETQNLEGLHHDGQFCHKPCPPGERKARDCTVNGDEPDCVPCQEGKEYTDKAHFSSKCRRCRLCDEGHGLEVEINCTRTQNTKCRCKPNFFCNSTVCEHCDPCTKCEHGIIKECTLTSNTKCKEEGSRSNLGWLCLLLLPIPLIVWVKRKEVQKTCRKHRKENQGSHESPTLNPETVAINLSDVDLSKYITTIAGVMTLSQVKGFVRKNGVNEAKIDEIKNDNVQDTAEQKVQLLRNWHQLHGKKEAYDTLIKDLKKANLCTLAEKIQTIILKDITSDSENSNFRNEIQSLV
Protocol: ELANE lowers CD95 levels in cancer cells and reduced CD95 levels are associated with apoptosis. (FIG. 8A) Recombinant proteins (1 μg) corresponding to full length CD95 (FL-CD95), N-terminal domain of CD95 (amino acids 1-173; N-CD95), or C-terminal domain of CD95 (amino acids 157-320; C-CD95) were inbuated with ELANE (0.05 μg) or vehicle (Veh) for 2 hrs at 37° C. Degradation was assessed by SDS-PAGE followed by coomassie blue staining. […] (FIG. 8C) Cancer cells were treated with ELANE (50 nM) for 1 hr, fixed in 10% formalin, and stained with N- or C-terminal specific anti-CD95 antibodies (green). Hoechst 33342 solution was used for nuclear staining (blue). Images were taken under 40×.
ELANE selectively cleaves the C-terminal domain of CD95. The CD95 pathway is essential for the survival of a wide range of cancer cells, but largely dispensable for normal cell survival (Adachi et al., Nat. Genet., 1995; Karray et al., J. Immunol., 2004). CD95 function can be modulated by proteolysis (Strand et al., Oncogene, 2004). To test CD95 involvement in ELANE mediated cell killing ELANE (0.05 μg) was incubated with 1 μg recombinant human C-terminal (aa. 157-320) or N-terminal (aa. 1-173) CD95 for 2 hrs at 37° C. Degradation was assessed by SDS-PAGE followed by staining with coomassie blue. C-terminal domain cleavage. N-terminal domain cleavage. Cancer cells were treated with ELANE (50 nM) for 1 hr, fixed in 10% formalin, and stained with N- or C-terminal specific anti-CD95 antibodies. Hoechst 33342 solution was used for nuclear staining. Images were taken under 40×. […] Mel888 cancer cells were treated with ELANE (50 nM) for various times, and CD95 degradation was assessed by western blot analysis with a C-terminal specific anti-CD95 antibody.
(§1) Other serine proteases cleave the C-terminal domain of CD95, and the ability to cleave the C-terminal domain is associated with cancer cell killing. (FIG. 12A) Full length recombinanat CD95 protein was incubated with various serine proteases (human ELANE (80 nM), PR3 (80 nM), CSTG (80 nM), PPE (80 nM), mouse ELANE (80 nM), rat ELANE (500 nM), GZMB (80 nM), or Trypsin (250 nM)), or other types of proteases (CTSC (80 nM); or MMP7 (80 nM), MMP9 (80 nM), CTSD (80 nM) not shown) at 37° C. for 2 hours. Degradation was assessed by SDS-PAGE followed by coomassie blue staining. (FIG. 12B) MDA-MB-231 cancer cells were incubated with various proteases for 24 hrs. Cell viability was assessed by Calcein AM staining.

[2] = system: MDA-MB-231 cells; assay: Cancer cell killing, Calcein AM staining; format: cell-based, human; conditions: for cancer cell killing activity of purified protein: increasing doses, 5h; for cancer cell killing in combination with neutrophil conditioned media: Neu-CM 4 μg/mL, DOX 0.3 μM or PTX 3 nM, 4h
Protocol: Approach to identify the factor(s) mediating selective killing. A quantitative cancer cell killing assay was developed to track the bioactive factor(s). MDA-MB-231 cells were treated with various doses of PMN media and cell viability was assessed by Calcein AM live cells fluorescence staining. […] (FIG. 3B) PMN media was passed through a 0.22 μm filter, and protein concentration and killing activity on MDA-MB-231 cancer cells was measured in both pre- and post-filter solutions. […] ELANE and ECP levels in PMN media pre- and post-filtration were quantified by mass spectrometry (spectral counts).
To determine if ELANE and/or ECP were responsible, the inventors (1) immuno-depleted ELANE or ECP from PMN media; (2) treated cancer or normal cells with purified native ELANE or ECP from commercial sources. (FIG. 6A) ELANE or ECP were depleted from PMN media by immunoprecipitation; depletion was confirmed by western blotting. PMN media pre-depletion=Orig. and post-depletion=FT. Non-specific IgG was used as a control. (FIG. 6B) MDA-MB-231 cells or human monocyte-derived macrophages (HMDMs) were treated with purified native ELANE or ECP at various doses for 24h, and killing was assessed by Calcein AM staining. (FIG. 6C) MDA-MB-231 cells and HMDMs were treated with levels of ELANE (0.25 μg/mL) or ECP (0.05 μg/mL) that were present in the PMN media, alone or in combination for 24 hrs, and killing was examined by Calcein AM staining.
High doses of ECP or ELANE can kill cancer cells. The inventors sought to determine whether adding purified human ECP (Lee Biosolutions), human ELANE (Abcam), human DEFA1 (Abcam), human ANXA6 (R&D Systems) or human CASP3 (Abcam) individually could kill cancer cells without killing non-cancer cells. Increasing doses of each protein were added to MDA-MB-231 cells for 5h or human monocyte-derived macrophages (HMDMs) for 24 h and cell viability was determined by Calcein-AM.
ELANE and ECP synergize to selectively kill cancer cells. MDA-MB-231 and human monocyte-derived macrophages (HMDMs) were treated with levels of ELANE (0.25 μg/mL) or ECP (0.05 μg/mL) that were present in the PMN media, alone or in combination for 24 hrs. killing was examined by Calcein AM staining.
Combining chemotherapeutics and neutrophil conditioned media enhances the killing of human triple negative breast cancer cells. MDA-MB-231 cells were treated with neutrophil conditioned media (Neu-CM; 4 μg/mL), doxorubicin (DOX; 0.3 μM), or paclitaxel (PTX; 3 nM) for 4h, individually or in combination, and cell viability was assessed by Calcein-AM.
as §1
(FIG. 13A) MDA-MB-231 cancer cells were treated with various doses of purified native ELANE or purified native porcine pancreatic elastase (PPE) for 6 h, and killing was assessed by Calcein AM staining. (FIG. 13B). Purified native ELANE or purified native PPE was incubated with different concentrations of alpha-1-anti-trypsin (A1AT) for 15 mins. Catalytic activity was measured using a chromogenic substrate assay. Cancer cell killing capability was determined by treating MDA-MB-231 cancer cells with ELANE or PPE in the presence or absence of A1AT for 6h, followed by Calcein AM staining. (FIG. 13C) Catalytic activity was measured using a chromogenic substrate assay. […]

[3] = target: T2, ELANE (Homo sapiens, UniProt P08246); assay: Anti-ELANE magnetic bead pull-down from neutrophil conditioned media, western blotting; format: binding; conditions: anti-ELANE antibody beads
T2 construct: incubated the neutrophil conditioned media with magnetic beads coupled to an anti-ELANE antibody; endogenous in cells; host or cells: human peripheral blood neutrophils from healthy donors (conditioned media)
T2 sequence (P08246 30-267): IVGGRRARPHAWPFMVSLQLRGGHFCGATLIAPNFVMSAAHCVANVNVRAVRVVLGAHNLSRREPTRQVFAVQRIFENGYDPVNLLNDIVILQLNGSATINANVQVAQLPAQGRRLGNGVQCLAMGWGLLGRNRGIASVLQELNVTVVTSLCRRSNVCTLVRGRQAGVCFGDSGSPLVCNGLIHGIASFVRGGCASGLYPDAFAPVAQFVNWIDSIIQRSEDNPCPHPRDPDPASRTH
Excerpt: Identification of ECP, ELANE, ANXA6, DEFA1, and CASP3 as candidate cancer cell killing proteins in the neutrophil conditioned media. Neutrophil conditioned media was obtained from 2 different donors (Donor 1 and Donor 2). […] To determine the identity of the proteins depleted by the 0.2 μm sterile filter, the inventors performed quantitative proteomics analysis on the conditioned media from each donor pre- and post-filter. Proteomics analysis identified 2000 proteins, 4 of which (ECP, ELANE, ANXA6, and DEFA1) were depleted in samples from both donors (G-test, p<0.05). The inventors explored the possibility that these proteins might interact with or complement one another. This hypothesis was tested using two approaches. First, the inventors incubated the neutrophil conditioned media with magnetic beads coupled to an anti-ELANE antibody and analyzed the supernatant (sup), wash, and eluent (elute) by western blotting.

Molecule | cleavage of purified CD95 [1] | cancer cell killing by proteases [2] | cancer cell killing activity of purified protein [2] | further results
cathepsin G [CTSG] | cleaved purified CD95 with an identical degradation pattern to ELANE | killed cancer cells |  | 
DEFA1: purified human DEFA1 (Abcam) |  |  | low amount of activity | binding to ELANE [3]: ELANE-binding proteins
CC(=O)O[C@H]1C(=O)[C@@]2(C)[C@H]([C@H](OC(=O)c3ccccc3)[C@]3(O)C[C@H](OC(=O)[C@H](O)[C@@H](NC(=O)c4ccccc4)c4ccccc4)C(C)=C1C3(C)C)[C@]1(OC(C)=O)CO[C@@H]1C[C@@H]2O [paclitaxel, reference compound] |  |  |  | cancer cell killing in combination with neutrophil conditioned media [2]: enhanced cancer cell killing
COc1cccc2c1C(=O)c1c(O)c3c(c(O)c1C2=O)C[C@@](O)(C(=O)CO)C[C@@H]3O[C@H]1C[C@H](N)[C@H](O)[C@H](C)O1 [doxorubicin, reference compound] |  |  |  | cancer cell killing in combination with neutrophil conditioned media [2]: enhanced cancer cell killing
B1 | cleaved purified CD95 with an identical degradation pattern to ELANE | killed cancer cells |  | 
B2 |  |  | could not kill cancer cells | 
B3 |  |  | could not kill cancer cells | binding to ELANE [3]: ELANE-binding proteins
B4 | cleaved purified CD95 with an identical degradation pattern to ELANE | killed cancer cells |  | 

Reference: patent US12564623B2, “Methods and compositions for treating cancer” (The University of Chicago, priority 2017, dated 2026)
